First the molecules themselves.
B1: Hairpin Ribozyme (parent)
chain: GUCCUCUUUCACGUGCGCGUGAAAGAGAGAAGUGAACCAGAGAAACACACGUUGUGGUAUAUUACCUGGUA

Variants of B1 are the subject of this data set. The data set is described as follows: self-cleavage, relative activity (ratio to wild type); higher = more cleavage; co-transcriptional.
Take C16G C18U: the self-cleavage is 0.823. As to C16G C18G, the self-cleavage came to 0.863. In the case of G17U C48A, the self-cleavage was found to be 0.106. The same measure for C18A C66G: 0.113. As for C18A C66A, the self-cleavage was 0.258.

On to C18A C66U, for which the self-cleavage was determined as 0.594. Turning to G17U G19C, the self-cleavage amounted to 0.846. The same measure for C16G C66G: 0.0535; for G17A A59C: 0.196; for G17A A59U: 0.116. For C18A A44G the value was 0.199. Turning to C18A A44U, the self-cleavage stood at 0.105.

Turning to C18A C48A, the self-cleavage was 0.14. For C16G G51U the value was 0.803; for C16G G51C, 0.564. Consider G17U G51A, for which the self-cleavage turned out to be 0.946. For G17U G51C the value was 1.17; for C16G A61G, 0.151; for C16G A61U, 0.253. As for C18G A23G, the self-cleavage is 0.84. The same measure for C18G A23U: 0.752; for G17U C65U: 0.383. Consider C16G U33A, for which the self-cleavage turned out to be 0.105. For C16G U33G, the self-cleavage stood at 0.12. For G17U A30U the value was 0.116; for G17U A30C, 0.176; for C18A A47C, 0.424. In the case of G17C G21U, the self-cleavage came to 0.53. For G17U A26G the value was 0.812; for G17C G57C, 0.206; for C16U G19A, 1.03.

G17C U60G: the self-cleavage came to 0.425. Turning to G17A A47G, the self-cleavage worked out at 0.129. For G17A A45C the value was 0.0797. In the case of C16U C37U, the self-cleavage amounted to 0.508. For C16U C37A the value was 0.361; for G17A A30U, 0.0442. The same measure for G17A A30G: 0.0738; for G17U U67A: 0.249; for G17U U67G: 0.278. Regarding G17U A39C, the self-cleavage turned out to be 0.479. The same measure for G17U A39U: 0.337; for C18A U62C: 0.22. For C18A U62G the value was 0.138.

Take C18A U62A: the self-cleavage came to 0.204.

As to C16G G21U, the self-cleavage amounted to 0.442.

On to C16G U60G, for which the self-cleavage was 0.511. For G17A C46A, the self-cleavage came out at 0.191.

Regarding C18A A24U, the self-cleavage was 0.86. For C18A A24C, the self-cleavage amounted to 0.994. On to G17U A28G, for which the self-cleavage stood at 1.02. The same measure for C16U G57C: 0.113; for G17A G29U: 0.113; for G17A G29A: 0.0893. For G17C A47C the value was 0.187; for G17C A47U, 0.222; for G17C A47G, 0.0817. The same measure for C16U U55A: 0.357; for C16U U55G: 0.219; for C16U A26G: 0.959.

Take C16U G34C: the self-cleavage is 1.53. Consider C18A G42C, for which the self-cleavage came out at 0.35. With C18A G42U, the self-cleavage was 0.369. The same measure for G17C A39G: 0.217. The same measure for G17A U70G: 0.918. The same measure for G17U U70A: 0.95; for G17C A22C: 0.75. For the variant C16U G51U, the self-cleavage stood at 1.03. Turning to C16U G51C, the self-cleavage amounted to 1.08. On to G17U A49G, for which the self-cleavage amounted to 0.818. For G17U A49U the value was 0.195. The same measure for C16G A43G: 0.0515. For C16G A43C the value was 0.156.

On to G17C U58C, for which the self-cleavage turned out to be 0.825. The same measure for C16U A49C: 0.204; for G17A U20A: 0.759.

For the variant G17A U20G, the self-cleavage stood at 0.492.

For C18A G56U, the self-cleavage is 0.196. For C18A G56A the value was 0.158; for G17A G21C, 0.834.

Consider C16G G57U, for which the self-cleavage worked out at 0.119. On to C16G A45U, for which the self-cleavage came out at 0.229.

With C16G A45C, the self-cleavage worked out at 0.152. For C16G G19U the value was 0.719. For C16G G19C the value was 0.618; for C16U U58C, 1.1; for C16U U58A, 0.731.

Consider G17U A22U, for which the self-cleavage was found to be 0.793. Consider G17C C38U, for which the self-cleavage was 0.481. For G17C C38G, the self-cleavage was found to be 0.245. For C16G A71C the value was 1.35. Take C16G A71G: the self-cleavage worked out at 1.05.

Turning to C16U C18G, the self-cleavage is 0.873. Consider C16U C18A, for which the self-cleavage worked out at 0.985.

Take G17C A41G: the self-cleavage is 0.591.

Regarding C16G C37G, the self-cleavage is 0.386. For C18A A59U the value was 0.242; for C18A A59G, 0.272. For the variant G17C A44U, the self-cleavage turned out to be 0.0541. Turning to C16G G56U, the self-cleavage is 0.187. G17C C65A: the self-cleavage came to 0.748.

Consider G17U C46A, for which the self-cleavage stood at 0.152. The same measure for G17U C46G: 0.192; for G17A A71C: 1.37; for C16U G40U: 0.146. Consider C16U C50A, for which the self-cleavage came to 0.295.

C16U C50G: the self-cleavage amounted to 0.339. For G17C U53A, the self-cleavage came to 0.936. Take G17C U53C: the self-cleavage came out at 0.826.

With G17C G69A, the self-cleavage stood at 0.404. For C16G A47G the value was 0.187.

Turning to C16G C50A, the self-cleavage amounted to 0.198. For C16G C50U the value was 0.306; for C16U A47U, 0.0914; for C16U G25U, 0.873.

Turning to C16G U20G, the self-cleavage came out at 0.661.

Turning to C16G U20A, the self-cleavage is 1.02. The same measure for C16U C65G: 0.26; for C16U C65U: 0.443. For G17A G54A the value was 0.543. Consider G17U A36U, for which the self-cleavage turned out to be 0.483.

As to G17A C18U, the self-cleavage was 1.12. For G17U A41U the value was 1.51; for G17A C38G, 0.198; for C16U G27U, 0.198. As to C18A U60A, the self-cleavage was 1.02. For C18A U60G the value was 0.732; for G17U A35U, 0.557.

As to G17A A41C, the self-cleavage stood at 1.38. For G17A A41U the value was 1.38; for G17U A59C, 0.0796.

For C16G U67A, the self-cleavage was found to be 0.097. Turning to G17C A26C, the self-cleavage was 0.655. The same measure for C16U A23G: 1; for G17A G69A: 0.306. For G17A A43C the value was 0.0401; for G17A G51C, 0.656. For G17C A45C the value was 0.0898; for C18A G40C, 0.0959. For C16U U33A, the self-cleavage was determined as 0.0953. As for C16U U33C, the self-cleavage stood at 0.27. Turning to C16U U63C, the self-cleavage worked out at 0.165. For C16G U52A the value was 1.09; for C16G A44G, 0.0556; for C16U A28C, 0.565. For C18A G21U the value was 0.669; for G17A C48G, 0.102; for G17A C48A, 0.145. Consider C16G G68C, for which the self-cleavage is 0.153. In the case of C18A C50A, the self-cleavage worked out at 0.314.

C18A C50U: the self-cleavage came out at 0.428.

C18A G29U: the self-cleavage came to 0.198. For G17C A36C the value was 0.532. On to G17C A36G, for which the self-cleavage came out at 0.48. For C16G G25A the value was 0.612. For C16U G29A the value was 0.146; for C18A U52G, 0.86. As for C18A U52A, the self-cleavage was found to be 1.07.

For the variant G17C U55A, the self-cleavage was 0.257. Turning to C16G U55A, the self-cleavage is 0.265. In the case of C18G A26U, the self-cleavage worked out at 0.512. Regarding G17C U62C, the self-cleavage was 0.233. Turning to G17C C18G, the self-cleavage was 0.645. Turning to G17C C18A, the self-cleavage came out at 0.947.

Take C18A U53A: the self-cleavage turned out to be 1.02. Regarding C18A U53G, the self-cleavage turned out to be 0.891. The same measure for C18A C65A: 0.957.

These data come from the RNAGym collection of RNA variant scans (doi:10.7554/elife.80360).
